From article PMC5854672, “Solution structure of extracellular loop of human β4 subunit of BK channel and its biological implication on ChTX sensitivity” (Scientific Reports, 2018)

Columns and labels:
[1] = target: mSlo1 channel (BKα subunit of mouse, alone) (mouse) (UniProt Q08460)
mSlo1/β4(N123A) channel [2] = target: T1, mSlo1/β4(N123A) channel (mouse | human, UniProt Q08460 1-1209; Q86W47 1-210, N123A); assay: cell-based or functional assay
mSlo1/β4(N123K) channel [3] = target: T2, mSlo1/β4(N123K) channel (mouse | human, UniProt Q08460 1-1209; Q86W47 1-210, N123K); assay: cell-based or functional assay
mSlo1/β4(N123R) channel [4] = target: T3, mSlo1/β4(N123R) channel (mouse | human, UniProt Q08460 1-1209; Q86W47 1-210, N123R); assay: cell-based or functional assay
mSlo1/β4(N123E) channel [5] = target: T4, mSlo1/β4(N123E) channel (mouse | human, UniProt Q08460 1-1209; Q86W47 1-210, N123E); assay: cell-based or functional assay
mSlo1/β4(N123D) channel [6] = target: T5, mSlo1/β4(N123D) channel (mouse | human, UniProt Q08460 1-1209; Q86W47 1-210, N123D); assay: cell-based or functional assay
mSlo1/β4 channel [7] = target: T6, mSlo1/β4 channel (mouse | human, UniProt Q08460 1-1209; Q86W47 1-210); assay: cell-based or functional assay
mSlo1/β4(H101Y) channel = target: T7, mSlo1/β4(H101Y) channel (mouse | human, UniProt Q08460 1-1209; Q86W47 1-210, H101Y); assay: patch-clamp electrophysiology (time course of current block); outside-out patches of transfected HEK293 cells perfused with 1 μM ChTX; steps to +100 mV, intracellular 10 μM Ca2+; τon and τoff fitted to a first order bimolecular reaction scheme; KD = [ChTX]/((τoff/τon) − 1); conditions: one partner purified
T7 construct: mSlo1, BK channel α subunit (KCNMA1) of mouse, full-length cDNA, GenBank HQ221747.1; human BK channel β4 subunit (KCNMB4), full-length cDNA, GenBank AF207992.1; source: HEK293, transiently co-transfected (pcDNA3.1(+)), in excised membrane patches; copies: 4 + 4

mSlo1/β4(N123A) channel [8] = target: T1, mSlo1/β4(N123A) channel; assay: as above; conditions: one partner purified
mSlo1/β4(N123K) channel [9] = target: T2, mSlo1/β4(N123K) channel; assay: as above; conditions: one partner purified
mSlo1/β4(N123R) channel [10] = target: T3, mSlo1/β4(N123R) channel; assay: as above; conditions: one partner purified
mSlo1/β4(N123E) channel [11] = target: T4, mSlo1/β4(N123E) channel; assay: as above; conditions: one partner purified
mSlo1/β4(N123D) channel [12] = target: T5, mSlo1/β4(N123D) channel; assay: as above; conditions: one partner purified
mSlo1/β4(N123F) channel = target: T8, mSlo1/β4(N123F) channel (mouse | human, UniProt Q08460 1-1209; Q86W47 1-210, N123F); assay: as above; conditions: one partner purified
T8 construct: mSlo1, BK channel α subunit (KCNMA1) of mouse, full-length cDNA, GenBank HQ221747.1; human BK channel β4 subunit (KCNMB4), full-length cDNA, GenBank AF207992.1; source: HEK293, transiently co-transfected (pcDNA3.1(+)), in excised membrane patches; copies: 4 + 4

mSlo1/β4(N123V) channel = target: T9, mSlo1/β4(N123V) channel (mouse | human, UniProt Q08460 1-1209; Q86W47 1-210, N123V); assay: as above; conditions: one partner purified
T9 construct: mSlo1, BK channel α subunit (KCNMA1) of mouse, full-length cDNA, GenBank HQ221747.1; human BK channel β4 subunit (KCNMB4), full-length cDNA, GenBank AF207992.1; source: HEK293, transiently co-transfected (pcDNA3.1(+)), in excised membrane patches; copies: 4 + 4

mSlo1/β4(N123Y) channel = target: T10, mSlo1/β4(N123Y) channel (mouse | human, UniProt Q08460 1-1209; Q86W47 1-210, N123Y); assay: as above; conditions: one partner purified
T10 construct: mSlo1, BK channel α subunit (KCNMA1) of mouse, full-length cDNA, GenBank HQ221747.1; human BK channel β4 subunit (KCNMB4), full-length cDNA, GenBank AF207992.1; source: HEK293, transiently co-transfected (pcDNA3.1(+)), in excised membrane patches; copies: 4 + 4

mSlo1/β4(N123I) channel = target: T11, mSlo1/β4(N123I) channel (mouse | human, UniProt Q08460 1-1209; Q86W47 1-210, N123I); assay: as above; conditions: one partner purified
T11 construct: mSlo1, BK channel α subunit (KCNMA1) of mouse, full-length cDNA, GenBank HQ221747.1; human BK channel β4 subunit (KCNMB4), full-length cDNA, GenBank AF207992.1; source: HEK293, transiently co-transfected (pcDNA3.1(+)), in excised membrane patches; copies: 4 + 4

mSlo1/β4(N123L) channel = target: T12, mSlo1/β4(N123L) channel (mouse | human, UniProt Q08460 1-1209; Q86W47 1-210, N123L); assay: as above; conditions: one partner purified
T12 construct: mSlo1, BK channel α subunit (KCNMA1) of mouse, full-length cDNA, GenBank HQ221747.1; human BK channel β4 subunit (KCNMB4), full-length cDNA, GenBank AF207992.1; source: HEK293, transiently co-transfected (pcDNA3.1(+)), in excised membrane patches; copies: 4 + 4

[13] = target: T13, mSlo1 channel (BKα subunit of mouse, alone) (mouse, UniProt Q08460 1-1209); assay: as above; conditions: one partner purified
T13 construct: mSlo1, BK channel α subunit (KCNMA1) of mouse, full-length cDNA, GenBank HQ221747.1; tetrameric Slo1; also called mSlo1 alone channel; source: HEK293, transiently transfected (pcDNA3.1(+)), in excised membrane patches

mSlo1/β4 channel [14] = target: T6, mSlo1/β4 channel; assay: as above; conditions: one partner purified

T5 sequence (Q08460 whole entry, stated change not applied, one chain of several): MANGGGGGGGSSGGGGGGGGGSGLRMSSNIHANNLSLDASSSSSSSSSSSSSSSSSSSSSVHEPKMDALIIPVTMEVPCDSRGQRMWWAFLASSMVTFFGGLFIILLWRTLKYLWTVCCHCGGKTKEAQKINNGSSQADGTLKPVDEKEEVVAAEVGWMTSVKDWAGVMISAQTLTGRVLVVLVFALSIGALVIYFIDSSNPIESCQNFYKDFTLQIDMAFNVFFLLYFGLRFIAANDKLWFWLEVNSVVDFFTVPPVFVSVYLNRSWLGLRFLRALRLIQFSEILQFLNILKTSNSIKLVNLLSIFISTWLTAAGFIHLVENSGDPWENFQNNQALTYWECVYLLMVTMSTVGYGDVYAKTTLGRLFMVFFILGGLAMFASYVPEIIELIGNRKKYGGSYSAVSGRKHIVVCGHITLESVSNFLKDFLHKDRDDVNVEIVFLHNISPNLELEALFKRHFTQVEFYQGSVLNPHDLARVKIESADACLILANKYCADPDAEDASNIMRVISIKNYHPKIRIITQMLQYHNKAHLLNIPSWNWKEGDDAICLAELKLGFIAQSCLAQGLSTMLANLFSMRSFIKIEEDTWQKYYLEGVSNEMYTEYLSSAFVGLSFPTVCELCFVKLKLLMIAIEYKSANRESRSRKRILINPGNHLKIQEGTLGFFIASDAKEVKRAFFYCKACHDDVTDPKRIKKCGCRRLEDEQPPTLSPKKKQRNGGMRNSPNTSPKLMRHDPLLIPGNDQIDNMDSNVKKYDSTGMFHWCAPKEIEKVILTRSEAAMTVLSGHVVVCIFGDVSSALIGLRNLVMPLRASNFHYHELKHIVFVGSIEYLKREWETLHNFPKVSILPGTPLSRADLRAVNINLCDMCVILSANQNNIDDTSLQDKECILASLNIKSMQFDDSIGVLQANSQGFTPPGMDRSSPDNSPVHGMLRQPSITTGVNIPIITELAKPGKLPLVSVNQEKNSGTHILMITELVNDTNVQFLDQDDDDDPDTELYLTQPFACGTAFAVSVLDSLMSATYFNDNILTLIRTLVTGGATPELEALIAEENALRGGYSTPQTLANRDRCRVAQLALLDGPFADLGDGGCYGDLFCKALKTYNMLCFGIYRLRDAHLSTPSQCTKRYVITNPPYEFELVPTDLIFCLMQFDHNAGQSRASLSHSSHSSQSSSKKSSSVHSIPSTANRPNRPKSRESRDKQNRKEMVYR
T13 sequence (Q08460 whole entry): as the sequence (Q08460 whole entry, stated change not applied, one chain of several) above
T4 sequence (Q08460 whole entry, stated change not applied, one chain of several): as above
T6 sequence (Q08460 whole entry, the tested form may be a part, one chain of several): as the sequence (Q08460 whole entry, stated change not applied, one chain of several) above
Chain of mSlo1 channel (BKα subunit of mouse, alone) (mouse) (Q08460 whole entry): as the sequence (Q08460 whole entry, stated change not applied, one chain of several) above

B1: human β4 subunit of BK channel, full length (natural protein)
chain: MAKLRVAYEYTEAEDKSIRLGLFLIISGVVSLFIFGFCWLSPALQDLQATEANCTVLSVQQIGEVFECTFTCGADCRGTSQYPCVQVYVNNSESNSRALLHSDEHQLLTNPKCSYIPPCKRENQKNLESVMNWQQYWKDEIGSQPFTCYFNQHQRPDDVLLHRTHDEIVLLHCFLWPLVTFVVGVLIVVLTICAKSLAVKAEAMKKRKFS
Q: Which thermodynamic double-mutant cycle on V1/2 of G-V curves (inside-out patches, 10 μM Ca2+): mSlo1(E264A) against β4(N123A), ΔΔV [1] does the source give for B1 here?
A: -42.4 mV

B2: Charybdotoxin (peptide)
chain: QFTNVSCTTSKECWSVCQRLHNTSRGKCMNKKCRCYS
notes: charybdotoxin (ChTX), scorpion toxin; also called ChTX; source: bought: Sigma-Aldrich (Art. No. C7802)
Q: What does the source list for B2?
A: inhibition of channel currents by 1 μM ChTX (outside-out patches, HEK293) (mSlo1/β4(N123A) channel [2]): ~90%; inhibition of channel currents by 1 μM ChTX (outside-out patches, HEK293) (mSlo1/β4(N123K) channel [3]): 89.1%; inhibition of channel currents by 1 μM ChTX (outside-out patches, HEK293) (mSlo1/β4(N123R) channel [4]): 36.4%; inhibition of channel currents by 1 μM ChTX (outside-out patches, HEK293) (mSlo1/β4(N123E) channel [5]): 96%; inhibition of channel currents by 1 μM ChTX (outside-out patches, HEK293) (mSlo1/β4(N123D) channel [6]): 46.9%; inhibition of channel currents by 1 μM ChTX (outside-out patches, HEK293) (mSlo1/β4 channel [7]): 22.2%; Kd (mSlo1/β4(H101Y) channel): 325 nM; τoff (mSlo1/β4(H101Y) channel): 32.6 s; τon (block at 1 μM ChTX) (mSlo1/β4(H101Y) channel): 8 s; Kd (mSlo1/β4(N123A) channel [8]): 96.8 nM; τoff (mSlo1/β4(N123A) channel [8]): 816 s; τon (block at 1 μM ChTX) (mSlo1/β4(N123A) channel [8]): 72 s; Kd (mSlo1/β4(N123K) channel [9]): 44.3 nM; τoff (mSlo1/β4(N123K) channel [9]): 314 s; τon (block at 1 μM ChTX) (mSlo1/β4(N123K) channel [9]): 13.3 s; Kd (mSlo1/β4(N123R) channel [10]): 329 nM; τoff (mSlo1/β4(N123R) channel [10]): 85.3 s; τon (block at 1 μM ChTX) (mSlo1/β4(N123R) channel [10]): 21.1 s; Kd (mSlo1/β4(N123E) channel [11]): 80.8 nM; τoff (mSlo1/β4(N123E) channel [11]): 138 s; τon (block at 1 μM ChTX) (mSlo1/β4(N123E) channel [11]): 10.3 s; Kd (mSlo1/β4(N123D) channel [12]): 72.6 nM; τoff (mSlo1/β4(N123D) channel [12]): 624 s; τon (block at 1 μM ChTX) (mSlo1/β4(N123D) channel [12]): 42.2 s; Kd (mSlo1/β4(N123F) channel): 47.1 nM; τoff (mSlo1/β4(N123F) channel): 670 s; τon (block at 1 μM ChTX) (mSlo1/β4(N123F) channel): 30.1 s; Kd (mSlo1/β4(N123V) channel): 61.8 nM; τoff (mSlo1/β4(N123V) channel): 53.3 s; τon (block at 1 μM ChTX) (mSlo1/β4(N123V) channel): 3.1 s; Kd (mSlo1/β4(N123Y) channel): 291 nM; τoff (mSlo1/β4(N123Y) channel): 26.2 s; τon (block at 1 μM ChTX) (mSlo1/β4(N123Y) channel): 5.9 s; Kd (mSlo1/β4(N123I) channel): 119 nM; τoff (mSlo1/β4(N123I) channel): 38.5 s; τon (block at 1 μM ChTX) (mSlo1/β4(N123I) channel): 4.1 s; Kd (mSlo1/β4(N123L) channel): 41.9 nM; τoff (mSlo1/β4(N123L) channel): 171 s; τon (block at 1 μM ChTX) (mSlo1/β4(N123L) channel): 6.9 s; Kd [13]: 193 nM; τoff [13]: 21.6 s; τon (block at 1 μM ChTX) [13]: 3.5 s; τon (block at 1 μM ChTX) (mSlo1/β4 channel [14]): 60.9 s
